{"source": "patent US20190263889A1", "key": {"[1]": {"target": "CTLA-4Fc mutant protein M1 (human (murine residues substituted))", "sequence (chain, as listed by the source mutant)": "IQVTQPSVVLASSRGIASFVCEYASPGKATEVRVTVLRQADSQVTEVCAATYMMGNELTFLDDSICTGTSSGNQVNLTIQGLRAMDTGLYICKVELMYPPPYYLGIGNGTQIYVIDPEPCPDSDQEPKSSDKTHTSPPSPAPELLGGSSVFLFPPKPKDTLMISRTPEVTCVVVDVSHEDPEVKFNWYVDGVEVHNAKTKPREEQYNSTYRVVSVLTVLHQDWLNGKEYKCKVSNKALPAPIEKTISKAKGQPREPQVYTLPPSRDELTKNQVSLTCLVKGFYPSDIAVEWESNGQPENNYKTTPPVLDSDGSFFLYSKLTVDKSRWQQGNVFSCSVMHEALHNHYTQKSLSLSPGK", "experiment": "ELISA; binder 100 ng/ml on coated target"}, "[2]": {"target": "CTLA-4Fc mutant protein M10 (human (murine residues substituted))", "sequence (chain, as listed by the source mutant)": "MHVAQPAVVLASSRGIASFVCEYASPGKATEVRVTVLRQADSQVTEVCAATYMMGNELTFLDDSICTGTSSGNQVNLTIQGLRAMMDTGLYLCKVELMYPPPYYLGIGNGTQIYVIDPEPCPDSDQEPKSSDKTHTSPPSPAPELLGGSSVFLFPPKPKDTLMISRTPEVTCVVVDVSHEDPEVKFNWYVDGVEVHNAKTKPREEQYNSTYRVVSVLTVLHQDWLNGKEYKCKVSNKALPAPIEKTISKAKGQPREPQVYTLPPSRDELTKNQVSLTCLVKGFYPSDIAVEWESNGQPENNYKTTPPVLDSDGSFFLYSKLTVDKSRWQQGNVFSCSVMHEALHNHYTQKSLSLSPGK", "experiment": "ELISA; binder 100 ng/ml on coated target"}, "[3]": {"target": "CTLA-4Fc mutant protein M11 (human (murine residues substituted))", "sequence (chain, as listed by the source mutant)": "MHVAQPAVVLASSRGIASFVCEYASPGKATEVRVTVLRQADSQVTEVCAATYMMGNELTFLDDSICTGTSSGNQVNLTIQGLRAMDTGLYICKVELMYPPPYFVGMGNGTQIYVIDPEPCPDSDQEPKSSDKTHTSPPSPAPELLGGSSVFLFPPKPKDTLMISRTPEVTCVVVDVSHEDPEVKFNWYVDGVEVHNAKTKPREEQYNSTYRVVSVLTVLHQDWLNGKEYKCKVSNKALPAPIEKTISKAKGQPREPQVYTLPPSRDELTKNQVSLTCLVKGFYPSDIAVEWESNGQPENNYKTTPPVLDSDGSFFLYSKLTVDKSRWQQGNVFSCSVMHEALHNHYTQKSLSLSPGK", "experiment": "ELISA; binder 100 ng/ml on coated target"}, "[4]": {"target": "CTLA-4Fc mutant protein M2 (human (murine residues substituted))", "sequence (chain, as listed by the source mutant)": "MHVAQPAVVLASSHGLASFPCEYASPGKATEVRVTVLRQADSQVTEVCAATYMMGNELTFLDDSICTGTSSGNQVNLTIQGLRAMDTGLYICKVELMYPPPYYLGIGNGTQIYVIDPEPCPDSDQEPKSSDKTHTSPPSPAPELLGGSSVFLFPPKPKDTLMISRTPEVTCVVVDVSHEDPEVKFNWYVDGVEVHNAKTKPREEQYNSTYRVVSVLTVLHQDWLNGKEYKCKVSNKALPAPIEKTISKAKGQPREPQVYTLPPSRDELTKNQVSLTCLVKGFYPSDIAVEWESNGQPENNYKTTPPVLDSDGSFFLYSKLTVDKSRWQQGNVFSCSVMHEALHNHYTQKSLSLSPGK", "experiment": "ELISA; binder 100 ng/ml on coated target"}, "[5]": {"target": "CTLA-4Fc mutant protein M3 (human (murine residues substituted))", "sequence (chain, as listed by the source mutant)": "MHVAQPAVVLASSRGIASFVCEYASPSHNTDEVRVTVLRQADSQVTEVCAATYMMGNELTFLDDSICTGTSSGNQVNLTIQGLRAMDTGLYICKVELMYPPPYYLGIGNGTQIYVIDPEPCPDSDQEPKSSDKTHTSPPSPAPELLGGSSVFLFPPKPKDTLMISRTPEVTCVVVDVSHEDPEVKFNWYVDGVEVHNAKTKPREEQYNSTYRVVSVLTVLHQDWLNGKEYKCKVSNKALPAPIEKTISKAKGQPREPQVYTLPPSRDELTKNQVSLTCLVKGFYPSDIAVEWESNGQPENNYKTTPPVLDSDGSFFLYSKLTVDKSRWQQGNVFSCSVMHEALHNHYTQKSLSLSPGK", "experiment": "ELISA; binder 100 ng/ml on coated target"}, "[6]": {"target": "CTLA-4Fc mutant protein M4 (human (murine residues substituted))", "sequence (chain, as listed by the source mutant)": "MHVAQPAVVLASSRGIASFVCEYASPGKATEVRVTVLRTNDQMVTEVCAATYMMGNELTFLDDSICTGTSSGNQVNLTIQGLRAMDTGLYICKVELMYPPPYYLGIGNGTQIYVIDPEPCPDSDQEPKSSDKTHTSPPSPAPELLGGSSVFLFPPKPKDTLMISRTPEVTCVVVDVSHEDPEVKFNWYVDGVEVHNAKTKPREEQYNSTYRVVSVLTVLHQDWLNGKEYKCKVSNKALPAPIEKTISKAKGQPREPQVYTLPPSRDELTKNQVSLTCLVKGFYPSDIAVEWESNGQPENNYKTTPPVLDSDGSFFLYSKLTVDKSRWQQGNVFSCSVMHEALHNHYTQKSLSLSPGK", "experiment": "ELISA; binder 100 ng/ml on coated target"}, "[7]": {"target": "CTLA-4Fc mutant protein M5 (human (murine residues substituted))", "sequence (chain, as listed by the source mutant)": "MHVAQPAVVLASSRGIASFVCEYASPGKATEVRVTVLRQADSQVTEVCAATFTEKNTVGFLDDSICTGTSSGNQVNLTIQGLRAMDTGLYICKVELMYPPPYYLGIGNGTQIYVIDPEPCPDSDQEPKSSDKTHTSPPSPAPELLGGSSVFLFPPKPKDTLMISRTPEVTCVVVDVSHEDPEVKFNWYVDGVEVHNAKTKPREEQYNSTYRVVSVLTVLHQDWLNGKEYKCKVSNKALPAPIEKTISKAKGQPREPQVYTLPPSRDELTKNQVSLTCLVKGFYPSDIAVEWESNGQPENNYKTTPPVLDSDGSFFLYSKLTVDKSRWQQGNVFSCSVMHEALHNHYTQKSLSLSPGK", "experiment": "ELISA; binder 100 ng/ml on coated target"}, "[8]": {"target": "CTLA-4Fc mutant protein M6 (human (murine residues substituted))", "sequence (chain, as listed by the source mutant)": "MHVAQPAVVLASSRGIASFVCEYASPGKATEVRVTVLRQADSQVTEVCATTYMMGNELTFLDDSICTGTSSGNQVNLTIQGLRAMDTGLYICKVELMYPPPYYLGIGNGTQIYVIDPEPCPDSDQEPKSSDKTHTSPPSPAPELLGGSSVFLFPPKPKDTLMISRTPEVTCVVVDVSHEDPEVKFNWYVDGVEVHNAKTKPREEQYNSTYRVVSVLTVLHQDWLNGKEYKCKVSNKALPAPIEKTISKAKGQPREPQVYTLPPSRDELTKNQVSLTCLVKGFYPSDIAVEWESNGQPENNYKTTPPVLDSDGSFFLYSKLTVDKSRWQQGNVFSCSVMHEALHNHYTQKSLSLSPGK", "experiment": "ELISA; binder 100 ng/ml on coated target"}, "[9]": {"target": "CTLA-4Fc mutant protein M7 (human (murine residues substituted))", "sequence (chain, as listed by the source mutant)": "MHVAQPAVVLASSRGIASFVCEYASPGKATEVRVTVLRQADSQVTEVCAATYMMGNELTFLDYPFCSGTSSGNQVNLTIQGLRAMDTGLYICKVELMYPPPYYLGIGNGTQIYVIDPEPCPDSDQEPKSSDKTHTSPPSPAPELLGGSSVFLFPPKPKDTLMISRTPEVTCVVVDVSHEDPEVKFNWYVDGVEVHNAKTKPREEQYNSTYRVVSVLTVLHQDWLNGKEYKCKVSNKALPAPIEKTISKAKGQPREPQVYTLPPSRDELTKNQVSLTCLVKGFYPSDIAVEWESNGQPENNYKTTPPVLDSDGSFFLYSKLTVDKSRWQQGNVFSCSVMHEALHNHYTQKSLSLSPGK", "experiment": "ELISA; binder 100 ng/ml on coated target"}, "[10]": {"target": "CTLA-4Fc mutant protein M8 (human (murine residues substituted))", "sequence (chain, as listed by the source mutant)": "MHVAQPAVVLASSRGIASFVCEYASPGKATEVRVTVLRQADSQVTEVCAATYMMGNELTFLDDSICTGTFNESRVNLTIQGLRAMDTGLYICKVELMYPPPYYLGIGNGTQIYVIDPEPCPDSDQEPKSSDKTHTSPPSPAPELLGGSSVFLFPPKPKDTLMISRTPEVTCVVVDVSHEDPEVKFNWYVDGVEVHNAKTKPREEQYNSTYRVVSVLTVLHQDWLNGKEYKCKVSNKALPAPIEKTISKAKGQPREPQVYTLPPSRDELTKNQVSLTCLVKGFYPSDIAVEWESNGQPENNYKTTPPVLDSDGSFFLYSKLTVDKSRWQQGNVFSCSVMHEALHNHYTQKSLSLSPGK", "experiment": "ELISA; binder 100 ng/ml on coated target"}, "[11]": {"target": "CTLA-4Fc mutant protein M9 (human (murine residues substituted))", "sequence (chain, as listed by the source mutant)": "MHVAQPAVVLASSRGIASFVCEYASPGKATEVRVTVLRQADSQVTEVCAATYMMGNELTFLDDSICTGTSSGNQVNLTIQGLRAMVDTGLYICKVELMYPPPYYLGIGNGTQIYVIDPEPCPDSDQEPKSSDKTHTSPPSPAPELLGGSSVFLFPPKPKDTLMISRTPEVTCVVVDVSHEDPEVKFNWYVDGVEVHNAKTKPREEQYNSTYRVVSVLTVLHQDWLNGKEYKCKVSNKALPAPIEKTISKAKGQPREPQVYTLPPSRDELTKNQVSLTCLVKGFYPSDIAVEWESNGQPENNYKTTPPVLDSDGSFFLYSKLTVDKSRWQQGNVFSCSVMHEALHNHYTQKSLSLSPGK", "experiment": "ELISA; binder 100 ng/ml on coated target"}, "[12]": {"target": "wild type human CTLA-4Fc fusion protein (abatacept) (human)", "sequence (chain, as listed by the source limits assumed)": "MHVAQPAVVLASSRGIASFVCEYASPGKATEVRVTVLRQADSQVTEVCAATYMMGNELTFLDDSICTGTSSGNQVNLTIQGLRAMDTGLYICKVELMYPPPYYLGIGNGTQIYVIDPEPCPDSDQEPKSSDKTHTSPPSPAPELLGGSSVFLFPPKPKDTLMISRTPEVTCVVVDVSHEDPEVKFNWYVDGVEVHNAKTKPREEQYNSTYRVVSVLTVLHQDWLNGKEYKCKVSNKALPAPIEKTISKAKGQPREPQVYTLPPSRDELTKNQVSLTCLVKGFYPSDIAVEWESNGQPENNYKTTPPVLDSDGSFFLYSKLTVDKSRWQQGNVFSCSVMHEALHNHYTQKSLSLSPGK", "experiment": "ELISA; binder 100 ng/ml on coated target"}, "[13]": {"target": "CTLA-4Fc mutant protein M2 (human (murine residues substituted))", "experiment": "ELISA; binder 0 (blank) on coated target"}, "[14]": {"target": "CTLA-4Fc mutant protein M4 (human (murine residues substituted))", "experiment": "ELISA; binder 0 (blank) on coated target"}, "[15]": {"target": "CTLA-4Fc mutant protein M6 (human (murine residues substituted))", "experiment": "ELISA; binder 0 (blank) on coated target"}, "[16]": {"target": "CTLA-4Fc mutant protein M8 (human (murine residues substituted))", "experiment": "ELISA; binder 0 (blank) on coated target"}, "[17]": {"target": "CTLA-4Fc mutant protein M9 (human (murine residues substituted))", "experiment": "ELISA; binder 0 (blank) on coated target"}, "[18]": {"target": "wild type human CTLA-4Fc fusion protein (abatacept) (human)", "experiment": "ELISA; binder 0 (blank) on coated target"}, "[19]": {"target": "human CTLA-4 (form in the blocking assay not stated) (human) (UniProt P16410)", "sequence (P16410 36-223 limits assumed)": "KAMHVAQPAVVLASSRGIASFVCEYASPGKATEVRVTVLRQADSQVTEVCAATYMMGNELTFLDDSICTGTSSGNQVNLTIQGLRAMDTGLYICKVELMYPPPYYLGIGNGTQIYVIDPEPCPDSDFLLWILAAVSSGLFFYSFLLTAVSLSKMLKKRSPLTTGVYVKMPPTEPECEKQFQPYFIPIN", "experiment": "blocking of B7-CTLA-4 interaction; format not stated, no data shown"}}, "note": "Values joined by “and” are separate entries in the source; they are usually repeats but may differ in a detail not shown here. Equal values may be shown once.", "data": [{"substance": "chimeric L3D10 anti-human CTLA-4 antibody", "values": [{"measurement": "OD450", "setting": "[1]", "value": "3.25 OD450 and 3.24 OD450"}, {"measurement": "OD450", "setting": "[2]", "value": "0.215 OD450 and 0.216 OD450"}, {"measurement": "OD450", "setting": "[3]", "value": "0.635 OD450 and 0.759 OD450"}, {"measurement": "OD450", "setting": "[4]", "value": "1.38 OD450 and 1.16 OD450"}, {"measurement": "OD450", "setting": "[5]", "value": "2.32 OD450 and 2.35 OD450"}, {"measurement": "OD450", "setting": "[6]", "value": "2.14 OD450 and 1.41 OD450"}, {"measurement": "OD450", "setting": "[7]", "value": "2.84 OD450 and 2.99 OD450"}, {"measurement": "OD450", "setting": "[8]", "value": "2.7 OD450 and 2.77 OD450"}, {"measurement": "OD450", "setting": "[9]", "value": "2.5 OD450 and 2.48 OD450"}, {"measurement": "OD450", "setting": "[10]", "value": "2.91 OD450 and 2.84 OD450"}, {"measurement": "OD450", "setting": "[11]", "value": "0.295 OD450 and 0.304 OD450"}, {"measurement": "OD450", "setting": "[12]", "value": "3.05 OD450 and 3.02 OD450"}, {"measurement": "OD450", "setting": "[13]", "value": "0.377 OD450 and 0.538 OD450"}, {"measurement": "OD450", "setting": "[14]", "value": "0.22 OD450 and 0.18 OD450"}, {"measurement": "OD450", "setting": "[15]", "value": "0.183 OD450 and 0.177 OD450"}, {"measurement": "OD450", "setting": "[16]", "value": "0.368 OD450 and 0.217 OD450"}, {"measurement": "OD450", "setting": "[17]", "value": "0.15 OD450 and 0.293 OD450"}, {"measurement": "OD450", "setting": "[18]", "value": "0.18 OD450 and 0.177 OD450"}, {"measurement": "fold higher B7 blocking activity than 10D1", "setting": "[19]", "value": 1000, "unit": "fold"}]}]}
